The source of these data is paper PMC2874908.

Where two headings read alike, the source gives them in different places.

The target in assay [1] is β-catenin (endogenous, CHO cells) (Chinese hamster (endogenous in CHO)) (UniProt G3H996). As to the kind of experiment: co-IP.
Assay [2] shares this target. Nature of the assay: co-IP. This is another data set of the same source.

Take “dynein (microtubule motor protein; endogenous, CHO cells) (complex)”: the fold change of dynein with β-catenin, V13 cells against E-cadherin cells was 2 to 2.5 fold in assay [1] and 3 fold in assay [2].
